Target: Aβ13-21 peptide (peptide 13)
Test: ELISA, biotinylated peptide (Mimotopes protocol)

O.D: 0.171 O.D
Substance: Control IgG (antibody)
